# Reference: PMC5538626, “Structural and functional analysis of the GABARAP interaction motif (GIM)” (EMBO Reports, 2017)
# Columns and labels:
# [1] = target: GABARAP (for ITC and NMR) (human) (UniProt O95166); experiment: ITC; peptide 0.4 mM titrated into 0.020 mM LC3/GABARAP protein in 26 steps, 25°C; 50 mM Na2HPO4, 100 mM NaCl, pH 7.0; one-site model
# [2] = target: LC3B (for ITC and NMR) (human) (UniProt Q9GZQ8); experiment: as above
# Sequence of GABARAP (for ITC and NMR) (human) (O95166 whole entry): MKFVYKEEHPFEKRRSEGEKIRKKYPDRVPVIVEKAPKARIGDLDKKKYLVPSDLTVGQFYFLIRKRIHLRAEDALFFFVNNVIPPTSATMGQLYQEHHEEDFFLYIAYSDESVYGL
Ka [1] [M⁻¹],Kd [1] [µM],dH [1] [kcal/mol],stoichiometry N [1],Ka [2] [M⁻¹],Kd [2] [µM],dH [2] [kcal/mol],stoichiometry N [2],Substance
1.13e+07,0.09,-9.2,1.07,3.03e+06,0.33,-7.9,1.06,PLEKHM1‐LIR VNV‐CIL peptide (ITC) (from UniProt Q9Y4G2 629-642)
130000,7.75,-6.7,1.17,20000,50,-1.4,,PLEKHM1‐LIR N637G peptide (ITC) (from UniProt Q9Y4G2 629-642)
